Patent US20190225692A1 (JUNO THERAPEUTICS, published 2019)
Where a chain is given by its changes, count along the chain named.

B1: modified version of TCR 13 (codon optimized, cysteine modified) (TCR, V domains shown)
V domain 1: AQSVTQLDSHVSVSEGTPVLLRCNYSSSYSPSLFWYVQHPNKGLQLLLKYTSAATLVKGINGFEAEFKKSETSFHLTKPSAHMSDAAEYFCVVRGGKLIFGQGTELSVKP
V domain 2: GAGVSQSPRYKVAKRGQDVALRCDPISGHVSLFWYQQALGQGPEFLTYFQNEAQLDKSGLPSDRFFAERPEGSVSTLKIQRTQQEDSAVYLCASSPTGTERELFFGEGSRLTVLE
B2: modified version of TCR 14 (codon optimized, cysteine modified) (TCR)
TCR alpha: ILNVEQSPQSLHVQEGDSTNFTCSFPSSNFYALHWYRWETAKSPEALFVMTLNGDEKKKGRISATLNTKEGYSYLYIKGSQPEDSATYLCASQTGANNLFFGTGTRLTVIPYIQNPDPAVYQLRDSKSSDKSVCLFTDFDSQTNVSQSKDSDVYITDKCVLDMRSMDFKSNSAVAWSNKSDFACANAFNNSIIPEDTFFPSPESSCDVKLVEKSFETDTNLNFQNLSVIGFRILLLKVAGFNLLMTLRLWSS
TCR beta: DVKVTQSSRYLVKRTGEKVFLECVQDMDHENMFWYRQDPGLGLRLIYFSYDVKMKEKGDIPEGYSVSREKKERFSLILESASTNQTSMYLCASTFWGQRRTEAFFGQGTRLTVVEDLNKVFPPEVAVFEPSEAEISHTQKATLVCLATGFFPDHVELSWWVNGKEVHSGVCTDPQPLKEQPALNDSRYCLSSRLRVSATFWQNPRNHFRCQVQFYGLSENDEWTQDRAKPVTQIVSAEAWGRADCGFTSVSYQQGVLSATILYEILLGKATLYAVLVSALVLMAMVKRKDF
B3: TCR 22 (codon optimized, cysteine modified version) (TCR, V domains shown)
V domain 1: GQNIDQPTEMTATEGAIVQINCTYQTSGFNGLFWYQQHAGEAPTFLSYNVLDGLEEKGRFSSFLSRSKGYSYLLLKELQMKDSASYLCAVRARMDSNYQLIWGAGTKLIIKP
V domain 2: DAGVTQSPTHLIKTRGQHVTLRCSPISGHKSVSWYQQVLGQGPQFIFQYYEKEERGRGNFPDRFSARQFPNYSSELNVNALLLGDSALYLCASSRTENYGYTFGSGTRLTVVE
B4: TCR 15 (codon optimized, cysteine modified version) (TCR, V domains shown)
V domain 1: AQKITQTQPGMFVQEKEAVTLDCTYDTSDQSYGLFWYKQPSSGEMIFLIYQGSYDEQNATEGRYSLNFQKARKSANLVISASQLGDSAMYFCAMKPGGYNKLIFGAGTRLAVHP
V domain 2: DAGVIQSPRHEVTEMGQEVTLRCKPISGHNSLFWYRQTMMRGLELLIYFNNNVPIDDSGMPEDRFSAKMPNASFSTLKIQPSEPRDSAVYFCASSLVGRSRTEQYFGPGTRLTVTE
B5: TCR 26 (codon optimized, cysteine modified version) (TCR, V domains shown)
V domain 1: B4 V domain 1 with K95R, P96D, G97A, G98R, Y99N, K101D, L102M, I103R, A111T, H113K
V domain 2: NAGVTQTPKFRVLKTGQSMTLLCAQDMNHEYMYWYRQDPGMGLRLIHYSVGEGTTAKGEVPDGYNVSRLKKQNFLLGLESAAPSQTSVYFCASSYYASGRNYEQYFGPGTRLTVTE
B6: TCR 16 (codon optimized, cysteine modified version) (TCR, V domains shown)
V domain 1: KQEVTQIPAALSVPEGENLVLNCSFTDSAIYNLQWFRQDPGKGLTSLLLIQSSQREQTSGRLNASLDKSSGRSTLYIAASQPGDSATYLCAVRPANNNDMRFGAGTRLTVKP
V domain 2: DVKVTQSSRYLVKRTGEKVFLECVQDMDHENMFWYRQDPGLGLRLIYFSYDVKMKEKGDIPEGYSVSREKKERFSLILESASTNQTSMYLCASSLWGRSNQPQHFGDGTRLSILE
B7: TCR 19 (codon optimized, cysteine modified version) (TCR, V domains shown)
V domain 1: AQKITQTQPGMFVQEKEAVTLDCTYDTSDQSYGLFWYKQPSSGEMIFLIYQGSYDEQNATEGRYSLNFQKARKSANLVISASQLGDSAMYFCAMRENTGTASKLTFGTGTRLQVTL
V domain 2: B6 V domain 2 with L95S, R98Q, N100T, Q101G, P102E, H104Y, D107P, S112T, I113V, L114T
B8: TCR 25 (codon optimized, cysteine modified version) (TCR, V domains shown)
V domain 1: AQKITQTQPGMFVQEKEAVTLDCTYDTSDQSYGLFWYKQPSSGEMIFLIYQGSYDEQNATEGRYSLNFQKARKSANLVISASQLGDSAMYFCAMREGSLTGGGNKLTFGTGTQLKVEL
V domain 2: B6 V domain 2 with R98Q
B9: TCR 29 (codon optimized, cysteine modified version) (TCR, V domains shown)
V domain 1: B7 V domain 1 with E96L
V domain 2: DGGITQSPKYLFRKEGQNVTLSCEQNLNHDAMYWYRQDPGQGLRLIYYSQIVNDFQKGDIAEGYSVSREKKESFPLTVTSAQKNPTAFYLCASSPWGRATNEQFFGPGTRLTVLE
B10: TCR 28 (codon optimized, cysteine modified version) (TCR, V domains shown)
V domain 1: RKEVEQDPGPFNVPEGATVAFNCTYSNSASQSFFWYRQDCRKEPKLLMSVYSSGNEDGRFTAQLNRASQYISLLIRDSKLSDSATYLCVVRGGGTSYGKLTFGQGTILTVHP
V domain 2: DVKVTQSSRYLVKRTGEKVFLECVQDMDHENMFWYRQDPGLGLRLIYFSYDVKMKEKGDIPEGYSVSREKKERFSLILESASTNQTSMYLCASSLWGRSSGNTIYFGEGSWLTVVE
B11: TCR 30 (codon optimized, cysteine modified version) (TCR, V domains shown)
V domain 1: DAKTTQPPSMDCAEGRAANLPCNHSTISGNEYVYWYRQIHSQGPQYIIHGLKNNETNEMASLIITEDRKSSTLILPHATLRDTAVYYCIVRGTSVLQGNEKLTFGTGTRLTIIP
V domain 2: EPEVTQTPSHQVTQMGQEVILRCVPISNHLYFYWYRQILGQKVEFLVSFYNNEISEKSEIFDDQFSVERPDGSNFTLKIRSTKLEDSAMYFCASSRQPSSGNTIYFGEGSWLTVVE
B12: TCR 20 (codon optimized, cysteine modified version) (TCR, V domains shown)
V domain 1: AQKVTQAQTEISVVEKEDVTLDCVYETRDTTYYLFWYKQPPSGELVFLIRRNSFDEQNEISGRYSWNFQKSTSSFNFTITASQVVDSAVYFCALWTGANNLFFGTGTRLTVIP
V domain 2: GAVVSQHPSRVICKSGTSVKIECRSLDFQATTMFWYRQFPKQSLMLMATSNEGSKATYEQGVEKDKFLINHASLTLSTLTVTSAHPEDSSFYICSASSLARRSYEQYFGPGTRLTVTE
B13: TCR 51 (codon optimized, cysteine modified version) (TCR, V domains shown)
V domain 1: QKEVEQNSGPLSVPEGAIASLNCTYSDRGSQSFFWYRQYSGKSPELIMSIYSNGDKEDGRFTAQLNKASQYVSLLIRDSQPSDSATYLCAVNMRGGGSNYKLTFGKGTLLTVNP
V domain 2: EPEVTQTPSHQVTQMGQEVILRCVPISNHLYFYWYRQILGQKVEFLVSFYNNEISEKSEIFDDQFSVERPDGSNFTLKIRSTKLEDSAMYFCAIASRVSYEQYFGPGTRLTVTE
B14: TCR 55 (codon optimized, cysteine modified version) (TCR)
TCR alpha: GEDVEQSLFLSVREGDSSVINCTYTDSSSTYLYWYKQEPGAGLQLLTYIFSNMDMKQDQRLTVLLNKKDKHLSLRIADTQTGDSAIYFCAVPSGATNKLIFGTGTLLAVQPNIQNPDPAVYQLRDSKSSDKSVCLFTDFDSQTNVSQSKDSDVYITDKCVLDMRSMDFKSNSAVAWSNKSDFACANAFNNSIIPEDTFFPSPESSCDVKLVEKSFETDTNLNFQNLSVIGFRILLLKVAGFNLLMTLRLWSS
TCR beta: EPEVTQTPSHQVTQMGQEVILRCVPISNHLYFYWYRQILGQKVEFLVSFYNNEISEKSEIFDDQFSVERPDGSNFTLKIRSTKLEDSAMYFCASTTRSSYEQYFGPGTRLTVTEDLKNVFPPEVAVFEPSEAEISHTQKATLVCLATGFYPDHVELSWWVNGKEVHSGVCTDPQPLKEQPALNDSRYCLSSRLRVSATFWQNPRNHFRCQVQFYGLSENDEWTQDRAKPVTQIVSAEAWGRADCGFTSESYQQGVLSATILYEILLGKATLYAVLVSALVLMAMVKRKDSRG
B15: TCR 53 (codon optimized, cysteine modified version) (TCR, V domains shown)
V domain 1: AQSVAQPEDQVNVAEGNPLTVKCTYSVSGNPYLFWYVQYPNRGLQFLLKYITGDNLVKGSYGFEAEFNKSQTSFHLKKPSALVSDSALYFCAVRDFGSGTYKYIFG
V domain 2: GAGVSQSPRYKVTKRGQDVALRCDPISGHVSLYWYRQALGQGPEFLTYFNYEAQQDKSGLPNDRFSAERPEGSISTLTIQRTEQRDSAMYRCASSGSGTSGYNEQFFGPGTRLTVLE

Biological target: T1, HLA-A2/E6 (29-38) tetramer (human; HPV 16)
T1 construct: also called E6(29-38) peptide-MHC tetramer; E6(29-38)-loaded tetramer
Test: tetramer flow cytometry; transfected Jurkat-derived cells, CD8+ population
Description: (§1) For transfection, the CD4+ and CD4+/CD8+ cell mixtures were transiently transfected with TCR-encoding plasmids and 48 hours after transfection, cells were assessed by flow cytometry for (1) binding of the target peptide in the context of an MHC molecule (HLA:A02:01) by staining with an E6(29-38) peptide- or an E7(11-19) peptide-MHC tetramer reagent, and/or (2) CD8+ independent binding of the target by co-staining the tetramer-labeled cells with an anti-CD8 antibody.

Binder	% cells in E6 tet+/CD8+ quadrant	% cells in E6 tet+/CD8- quadrant	% cells in E6 tet-/CD8+ quadrant	% cells in E6 tet-/CD8- quadrant
B1	38.6%	0.064%	59.5%	1.82%
B2	38.4%	0.04%	59.7%	1.8%
B3	51.2%	0.14%	47.3%	1.38%

Biological target: T1, HLA-A2/E6 (29-38) tetramer
Test: tetramer flow cytometry; transfected 1:1 CD4+ and CD4+/CD8+ Jurkat-derived cells;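 as to % cells in E6 tet+/CD8+ quadrant: cell mixtures transiently transfected with TCR-encoding plasmids, analysed by flow cytometry 48 h later after HLA-A*02:01 E6 tetramer staining combined with anti-CD8 antibody co-staining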;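 as to % cells in E6 tet+/CD8- quadrant: cell mixtures transiently transfected with TCR-encoding plasmids, analysed by flow cytometry 48 h later after HLA-A*02:01 E6 tetramer staining combined with anti-CD8 antibody co-staining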;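 as to % cells in E6 tet-/CD8+ quadrant: cell mixtures transiently transfected with TCR-encoding plasmids, analysed by flow cytometry 48 h later after HLA-A*02:01 E6 tetramer staining combined with anti-CD8 antibody co-staining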;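 as to % cells in E6 tet-/CD8- quadrant: cell mixtures transiently transfected with TCR-encoding plasmids, analysed by flow cytometry 48 h later after HLA-A*02:01 E6 tetramer staining combined with anti-CD8 antibody co-staining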;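 as to % cells in E7 tet+/CD8+ quadrant: cells transiently transfected with TCR plasmids, stained 48 h later with HLA-A*02:01 peptide-MHC tetramer plus anti-CD8 antibody, read by flow cytometry to assess CD8-independent tetramer binding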;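 as to % cells in E7 tet+/CD8- quadrant: cells transiently transfected with TCR plasmids, stained 48 h later with HLA-A*02:01 peptide-MHC tetramer plus anti-CD8 antibody, read by flow cytometry to assess CD8-independent tetramer binding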;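 as to % cells in E7 tet-/CD8+ quadrant: cells transiently transfected with TCR plasmids, stained 48 h later with HLA-A*02:01 peptide-MHC tetramer plus anti-CD8 antibody, read by flow cytometry to assess CD8-independent tetramer binding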;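 as to % cells in E7 tet-/CD8- quadrant: cells transiently transfected with TCR plasmids, stained 48 h later with HLA-A*02:01 peptide-MHC tetramer plus anti-CD8 antibody, read by flow cytometry to assess CD8-independent tetramer binding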
Description: as §1

Binder	% cells in E6 tet+/CD8+ quadrant	% cells in E6 tet+/CD8- quadrant	% cells in E6 tet-/CD8+ quadrant	% cells in E6 tet-/CD8- quadrant
B4	21.4%	40.2%	13.6%	24.8%
B5	42.3%	47.4%	1.58%	8.73%
B6	35.6%	28.2%	9.51%	26.7%
B7	35.5%	20.8%	7.71%	36%
B8	34%	14.7%	10.2%	41.1%
B9	35.6%	44.5%	2%	17.9%
B10	13.1%	0.15%	31.4%	55.4%
B11	31%	0.74%	13.9%	54.3%
B12	38.2%	34.1%	5.17%	22.6%

Biological target: T2, HLA-A2/E7 (11-19) tetramer (human; HPV 16)
T2 construct: also called E7(11-19) peptide-MHC tetramer; E7 (11-19)-loaded tetramer
Test: as above
Description: as §1

Binder	% cells in E7 tet+/CD8+ quadrant	% cells in E7 tet+/CD8- quadrant	% cells in E7 tet-/CD8+ quadrant	% cells in E7 tet-/CD8- quadrant
B13	5.7%	2.06%	27.5%	64.7%
B14	1.45%	0.28%	50.4%	47.9%
B15	3.35%	0.43%	28.7%	67.5%
